Data from US20140120095A1 (Boehringer Ingelheim, published 2014).
Changes are numbered by the printed parent chain.

B1: DLLBII107C03 (VHH)
VHH: EVQLVESGGGLVQPGGSLRLSCEVSGSIGSVSDMRWYRQAPGLQYELVARITSGSITDYSDSVKGRFTISRDNAKNTVYLQMNSLKPEDTAVYYCNADVQHSAWLKPLTYWGQGTQVTVSS
B2: DLLBII112E07 (VHH)
VHH: EVQLVESGGGLVQAGGSLRLSCAASGRTVRSYATGWFRQAPGKEREFVAALRWSIGSIASVYYDDSVKGRFTISGDNAENTVYLQMNALKPEDTAIYYCASTTRGRYSALSASAYDYWGQGTQVTVSS
B3: DLLBII112A03 (VHH)
VHH: EVQLVESGGGLVQPGGSLRLSCAASGIRFSINGMGWYRQAPGKQREAVATITRGGIRDYTDSVKGRFTISRDIARNTVYLQMNNLKPEDSAVYYCNIDIYWGRGTQVTVSS
B4: DLLBII80E08 (VHH)
VHH: EVQLVESGGGLVQAGGSLTLSCAASGGTFTTYAMGWFRQAPGKEREFVAAVSRFGVSWDYADSVKGRFTISRDNTANTLKLRMNSLKADDTAVYYCAAGGRSFLPFVPAYWGQGTQVTVSS
B5: DLLBII47D01 (VHH)
VHH: EVQLVESGGGLVQPGGSLRLSCAASGFTFDDYAIGWFRQAPGKEREGVSCISSSGSTYYADSVKGRFTISRDNAKNTVYLQMNSLKPEDTAVYYCAIAGASSWCFPPGYWGQGTQVTVSS
B6: DLLBII102F08 (VHH)
VHH: EVQLVESGGGLVQTGDSLRLSCAASGSTFSNYRMGWFRQGPGKEREFVAAIGRNGQNTYYTDSVKGRFTVTRDNAKNMVYLQMNSLKPEDSAVYTCAASLRGWDTTRIDYEYWGQGTQVTVSS
B7: DLLBII104B05 (VHH)
VHH: EVQLVESGGGSVQAGGSLRLSCAASGSISRIDVMAWYRQAPGKERELVASISSGGSTNYADSVKGRFTISREYFKNMMYLQMNSLKFEDTAVYYCNADSRRGGVGNFFRSWGQGTQVTVSS
B8: DLLBII129H04 (VHH)
VHH: EVQLVESRGGLVQAGGSLRLSCAASGRTFSSYAMAWFRQAPGKEREYVAAIRWSGGTAYYADSVQGRFTISRDNAKNTVYLQMNSLKPEDTAVYYCANRAPDTRLEPYLYDHWGQGTQVTVSS
B9: DLLBII129D01 (VHH)
VHH: B8 VHH with R8G, G66S, S71T
B10: DLLBII129E07 (VHH)
VHH: B8 VHH with R8G, A23S, F37Y, A61P, E106A, L109E
B11: DLLBII130B04 (VHH)
VHH: B8 VHH with R8G, E106R
B12: DLLBII130D06 (VHH)
VHH: B8 VHH with R8G, A23S, F37Y, G56E
B13: DLLBII129E03 (VHH)
VHH: B8 VHH with R8G, E44D, E106A, H112Y
B14: DLLBII130A05 (VHH)
VHH: B8 VHH with R8G, F37Y, E106G
B15: DLLBII130B02 (VHH)
VHH: B8 VHH with R8G, N84Y, E106A
B16: DLLBII129H02 (VHH)
VHH: B8 VHH with R8G, F37Y, E106R, L109E, H112Y
B17: DLLBII130E03 (VHH)
VHH: B8 VHH with R8G, F37Y, L109E
B18: DLLBII129G09 (VHH)
VHH: B8 VHH with R8G, F37Y, G56E
B19: DLLBII129G10 (VHH)
VHH: B8 VHH with R8G, F37Y, G66S, L109E
B20: DLLBII129H05 (VHH)
VHH: B8 VHH with R8G, F37Y, Q39L, E106G, H112Y
B21: DLLBII129B02 (VHH)
VHH: B8 VHH with R8G, R19S, F37Y, L109E
B22: DLLBII102G04 (VHH)
VHH: EVQLMESGGGLVQPGGSLRLSCAASGFTFSSYAMSWVRQAPGKGLEWVSRITSGGRTTYRDSVKGRFTISRDNSKNTLYLQMNSLKPEDTALYYCAKARGDIDVYTLSDSRGQGTQVTVSS
B23: DLLBII101H09 (VHH)
VHH: EVQLVESGGGLVQPGGSLRLSCAASGFTLGYYTIVWFRQAPGKERKGVSCISSRDGSRYYADSVKGRFTISRDNAKNTVYLRMNSLKPEDTAVYYCAAGPDCSSYDYWGQGTQVTVSS
B24: VEGFBII111D05 (VHH)
VHH: EVQLVESGGGLVQTGGSLRLSCEASGRTFSSYSMGWFRQAPGKEREFVVAISKGGYKYDSVSLEGRFTISRDNAKNTVYLQINSLRPEDTAVYYCASSRAYGSSRLRLADTYEYWGQGTLVTVSS
B25: VEGFBII111G06 (VHH)
VHH: B24 VHH with T14P, E23A, I82M
B26: DLLBII101H05 (VHH)
VHH: EVQLVESGGGSAQAGGSLRLSCAASGRTSSTYAMGWFRQAPGKEHEFVSAIGRGTGATSYGDSVKGRFTISRDNAKNTVYLQMNSLQLEDTGDYYCVAGRGFYHDYSSYEYRGQGTQVTVSS
B27: DLLBII104A03 (VHH)
VHH: EVQLVESGGGLVQAGGSLRLSCAASGDIPRIAAMGWYRQAPGKQRELVATVSNAATTRYADSAKGRFTISRDNAKTVSLQMDNLKPEDTGVYYCYSLATTVTPSWVNYWGQGTQVTVSS
B28: DLLBII112A04 (VHH)
VHH: EVQLVESGGGLVQAGGSLRLSCAAFGRTPYGMGWFRQAPGKEREFVAAITSDGSTNYADSVKGRFTISRDNAKNAVSLQMNSLKPEDTAVYYCTAPYYSDFEGTTTEYDYWGQGTQVTVSS

Key:
[1] = biological target: T1, human DLL4 overexpressed on cells (human, UniProt Q9NR61 27-685); assay: FMAT, labelled hNotch1-Fc on CHO-hDLL4, periplasmic extract
T1 construct: full length human DLL4 on CHO or HEK293 cells; also called CHO-hDLL4; CHO-hDII4
Text: (§1) All calculations are based on the FL1_total signal which comprises the average of the fluorescence per well times the number of counts per well.

[2] = biological target: T2, mouse DLL4 overexpressed on cells (mouse, UniProt Q9JI71 27-686); assay: FMAT, labelled hNotch1-Fc on CHO-mDLL4, periplasmic extract
T2 construct: whole, on cells; also called CHO-mDLL4; CHO-mDII4
T2 sequence (Q9JI71 27-686): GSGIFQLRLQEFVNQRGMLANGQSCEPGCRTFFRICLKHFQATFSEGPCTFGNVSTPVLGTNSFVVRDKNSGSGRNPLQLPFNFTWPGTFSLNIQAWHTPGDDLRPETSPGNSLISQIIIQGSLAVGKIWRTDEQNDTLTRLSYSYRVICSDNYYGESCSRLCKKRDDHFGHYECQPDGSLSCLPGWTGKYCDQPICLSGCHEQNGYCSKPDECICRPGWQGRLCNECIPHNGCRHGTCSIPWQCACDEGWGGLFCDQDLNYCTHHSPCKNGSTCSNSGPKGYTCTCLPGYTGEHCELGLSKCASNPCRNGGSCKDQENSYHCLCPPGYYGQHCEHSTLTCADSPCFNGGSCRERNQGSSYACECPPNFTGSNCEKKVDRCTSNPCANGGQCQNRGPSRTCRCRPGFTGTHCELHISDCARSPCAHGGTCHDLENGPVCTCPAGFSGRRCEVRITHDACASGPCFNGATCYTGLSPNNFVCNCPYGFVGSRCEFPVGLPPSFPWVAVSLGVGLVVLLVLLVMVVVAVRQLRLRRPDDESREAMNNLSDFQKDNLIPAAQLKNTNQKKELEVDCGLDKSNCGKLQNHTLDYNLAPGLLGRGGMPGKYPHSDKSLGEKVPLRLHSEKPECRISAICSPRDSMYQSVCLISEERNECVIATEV
Text: as §1

[3] = biological target: T3, recombinant human DLL4 (C-terminally His-tagged extracellular domain, R&D Systems) (human, UniProt Q9NR61 25-522, biotinylated in the competition ELISA); assay: ProteOn off-rate screen, periplasmic extract, coated human DLL4
T3 construct: also called rhDLL4; hDLL4
Method: (§2) In a first cycle, amino acid substitutions are introduced randomly in both framework (FW) and complementary determining regions (CDR) using the error-prone PCR method. […] After a polish step, PCR products are inserted via unique restriction sites into a vector designed to facilitate phage display of the VHH library. Consecutive rounds of in-solution selections are performed using decreasing concentrations of biotinylated recombinant human DLL4 (biot-rhDLL4) and trypsin elutions. Affinity-driven selections in a third round using cold rhDLL4 (at least 100× excess over biot-rhDLL4) are also performed. No selections on murine DLL4 are included as (conservation of) cross-reactivity is assessed at the screening level. Individual mutants are produced as recombinant protein using an expression vector derived from pUC119, which contains the LacZ promoter, a resistance gene for ampicillin, a multiple cloning site and an ompA leader sequence (pAX50). E. coliTG1 cells are transformed with the expression vector library and plated on agar plates (LB+Amp+2% glucose). Single colonies are picked from the agar plates and grown in 1 mL 96-deep-well plates. VHH expression is induced by adding IPTG (1 mM). Periplasmic extracts (in a volume of ˜80 uL) are prepared according to standard methods and screened for binding to recombinant human and mouse DII4 in a ProteOn (BioRad, Hercules, Calif., USA) off-rate assay. In brief, a GLC ProteOn Sensor chip is coated with recombinant human DII4 on the “ligand channels” L2 and L4 (with L1/L3 as reference channel), while “ligand channels” […] is coated with mouse DII4. Periplasmic extract of affinity-matured clones is diluted 1/10 and injected across the “analyte channels” A1-A6. An average off-rate is calculated of the wild type clones present in the plate and served as a reference to calculate off-rate improvements.

[4] = biological target: T4, recombinant mouse DLL4 (C-terminally His-tagged extracellular domain, R&D Systems) (mouse, UniProt Q9JI71 27-532); assay: ProteOn off-rate screen, periplasmic extract, coated mouse DLL4
T4 construct: extracellular domain; also called rmDLL4; mDLL4
T4 sequence (Q9JI71 27-532): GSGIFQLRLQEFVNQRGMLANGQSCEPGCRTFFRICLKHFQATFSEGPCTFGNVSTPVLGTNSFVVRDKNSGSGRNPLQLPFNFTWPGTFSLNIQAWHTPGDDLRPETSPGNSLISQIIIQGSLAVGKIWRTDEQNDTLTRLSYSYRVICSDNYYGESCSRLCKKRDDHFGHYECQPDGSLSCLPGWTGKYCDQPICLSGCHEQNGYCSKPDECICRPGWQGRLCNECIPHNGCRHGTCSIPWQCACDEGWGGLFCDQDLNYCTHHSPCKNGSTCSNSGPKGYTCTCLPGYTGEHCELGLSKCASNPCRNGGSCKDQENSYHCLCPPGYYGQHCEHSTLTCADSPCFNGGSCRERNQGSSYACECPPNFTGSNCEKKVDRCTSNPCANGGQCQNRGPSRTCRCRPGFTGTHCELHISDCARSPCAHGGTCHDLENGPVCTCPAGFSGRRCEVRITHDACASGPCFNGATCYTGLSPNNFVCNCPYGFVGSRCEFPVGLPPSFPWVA
Method: as §2

[5] = biological target: T5, recombinant human VEGF165 (human, UniProt P15692-4 27-191, biotinylated in the competition assays); assay: AlphaScreen, hVEGF165/hVEGFR2-Fc competition; design: % inhibition: concentration or dose not given beside the values
T5 construct: Bought protein; also called hVEGF165; rhVEGF165
T5 sequence (P15692 other isoform, or with tags, fused parts or gaps): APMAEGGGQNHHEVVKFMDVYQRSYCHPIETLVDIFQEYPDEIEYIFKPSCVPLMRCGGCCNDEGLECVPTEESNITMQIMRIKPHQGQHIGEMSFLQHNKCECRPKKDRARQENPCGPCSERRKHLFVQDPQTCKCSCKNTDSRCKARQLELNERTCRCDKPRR

| Binder | % inh [1] | % inh [2] | fold (off-rate vs DLLBII101G08) [3] | koff [3] | fold (off-rate vs DLLBII101G08) [4] | koff [4] | % inhibition [5] | IC50 [5] |
| --- | --- | --- | --- | --- | --- | --- | --- | --- |
| B1 | 75% | 80% | – | – | – | – | – | – |
| B2 | 80% | 85% | – | – | – | – | – | – |
| B3 | 72% | 97% | – | – | – | – | – | – |
| B4 | 71% | 82% | – | – | – | – | – | – |
| B5 | 87% | – | – | – | – | – | – | – |
| B6 | 85% | 75% | – | – | – | – | – | – |
| B7 | 86% | 78% | – | – | – | – | – | – |
| B8 | – | – | 33 fold | 6.8e-05 s⁻¹ | 27 fold | 0.00025 s⁻¹ | – | – |
| B9 | – | – | 26 fold | 8.5e-05 s⁻¹ | 26 fold | 0.00026 s⁻¹ | – | – |
| B10 | – | – | 21 fold | 0.00011 s⁻¹ | 24 fold | 0.00028 s⁻¹ | – | – |
| B11 | – | – | 22 fold | 8.3e-05 s⁻¹ | 17 fold | 0.00029 s⁻¹ | – | – |
| B12 | – | – | 26 fold | 6.9e-05 s⁻¹ | 16 fold | 0.00031 s⁻¹ | – | – |
| B13 | – | – | 20 fold | 0.00011 s⁻¹ | 18 fold | 0.00036 s⁻¹ | – | – |
| B14 | – | – | 24 fold | 7.5e-05 s⁻¹ | 17 fold | 0.0003 s⁻¹ | – | – |
| B15 | – | – | 23 fold | 7.8e-05 s⁻¹ | 17 fold | 0.00029 s⁻¹ | – | – |
| B16 | – | – | 23 fold | 9.9e-05 s⁻¹ | 19 fold | 0.00034 s⁻¹ | – | – |
| B17 | – | – | 24 fold | 7.5e-05 s⁻¹ | 18 fold | 0.00027 s⁻¹ | – | – |
| B18 | – | – | 26 fold | 8.8e-05 s⁻¹ | 20 fold | 0.00034 s⁻¹ | – | – |
| B19 | – | – | 31 fold | 7.3e-05 s⁻¹ | 26 fold | 0.00026 s⁻¹ | – | – |
| B20 | – | – | 24 fold | 9.4e-05 s⁻¹ | 19 fold | 0.00035 s⁻¹ | – | – |
| B21 | – | – | 30 fold | 7.6e-05 s⁻¹ | 26 fold | 0.00026 s⁻¹ | – | – |
| B22 | 86% | 82% | – | – | – | – | – | – |
| B23 | 87% | 75% | – | – | – | – | – | – |
| B24 | – | – | – | – | – | – | 100% | 0.209 nM |
| B25 | – | – | – | – | – | – | 100% | 0.366 nM |
| B26 | 85% | 83% | – | – | – | – | – | – |
| B27 | 86% | 83% | – | – | – | – | – | – |
| B28 | 75% | 90% | – | – | – | – | – | – |
